The values below come from US20210220450A1, “TREATMENT OF AN IOP CONDITION” (The Research Foundation for The State University of New York, priority 2013, published 2021).

Test [1] deals with low-density-lipoprotein receptor-related protein 1 (LRP-1) (UniProt Q07954). In words: cell-based or functional assay.
In test [2] the target is N-methyl-D-aspartate receptor (NMDAR). In words: cell-based or functional assay.

Chain of UniProt Q07954 (Q07954 20-4544 limits assumed): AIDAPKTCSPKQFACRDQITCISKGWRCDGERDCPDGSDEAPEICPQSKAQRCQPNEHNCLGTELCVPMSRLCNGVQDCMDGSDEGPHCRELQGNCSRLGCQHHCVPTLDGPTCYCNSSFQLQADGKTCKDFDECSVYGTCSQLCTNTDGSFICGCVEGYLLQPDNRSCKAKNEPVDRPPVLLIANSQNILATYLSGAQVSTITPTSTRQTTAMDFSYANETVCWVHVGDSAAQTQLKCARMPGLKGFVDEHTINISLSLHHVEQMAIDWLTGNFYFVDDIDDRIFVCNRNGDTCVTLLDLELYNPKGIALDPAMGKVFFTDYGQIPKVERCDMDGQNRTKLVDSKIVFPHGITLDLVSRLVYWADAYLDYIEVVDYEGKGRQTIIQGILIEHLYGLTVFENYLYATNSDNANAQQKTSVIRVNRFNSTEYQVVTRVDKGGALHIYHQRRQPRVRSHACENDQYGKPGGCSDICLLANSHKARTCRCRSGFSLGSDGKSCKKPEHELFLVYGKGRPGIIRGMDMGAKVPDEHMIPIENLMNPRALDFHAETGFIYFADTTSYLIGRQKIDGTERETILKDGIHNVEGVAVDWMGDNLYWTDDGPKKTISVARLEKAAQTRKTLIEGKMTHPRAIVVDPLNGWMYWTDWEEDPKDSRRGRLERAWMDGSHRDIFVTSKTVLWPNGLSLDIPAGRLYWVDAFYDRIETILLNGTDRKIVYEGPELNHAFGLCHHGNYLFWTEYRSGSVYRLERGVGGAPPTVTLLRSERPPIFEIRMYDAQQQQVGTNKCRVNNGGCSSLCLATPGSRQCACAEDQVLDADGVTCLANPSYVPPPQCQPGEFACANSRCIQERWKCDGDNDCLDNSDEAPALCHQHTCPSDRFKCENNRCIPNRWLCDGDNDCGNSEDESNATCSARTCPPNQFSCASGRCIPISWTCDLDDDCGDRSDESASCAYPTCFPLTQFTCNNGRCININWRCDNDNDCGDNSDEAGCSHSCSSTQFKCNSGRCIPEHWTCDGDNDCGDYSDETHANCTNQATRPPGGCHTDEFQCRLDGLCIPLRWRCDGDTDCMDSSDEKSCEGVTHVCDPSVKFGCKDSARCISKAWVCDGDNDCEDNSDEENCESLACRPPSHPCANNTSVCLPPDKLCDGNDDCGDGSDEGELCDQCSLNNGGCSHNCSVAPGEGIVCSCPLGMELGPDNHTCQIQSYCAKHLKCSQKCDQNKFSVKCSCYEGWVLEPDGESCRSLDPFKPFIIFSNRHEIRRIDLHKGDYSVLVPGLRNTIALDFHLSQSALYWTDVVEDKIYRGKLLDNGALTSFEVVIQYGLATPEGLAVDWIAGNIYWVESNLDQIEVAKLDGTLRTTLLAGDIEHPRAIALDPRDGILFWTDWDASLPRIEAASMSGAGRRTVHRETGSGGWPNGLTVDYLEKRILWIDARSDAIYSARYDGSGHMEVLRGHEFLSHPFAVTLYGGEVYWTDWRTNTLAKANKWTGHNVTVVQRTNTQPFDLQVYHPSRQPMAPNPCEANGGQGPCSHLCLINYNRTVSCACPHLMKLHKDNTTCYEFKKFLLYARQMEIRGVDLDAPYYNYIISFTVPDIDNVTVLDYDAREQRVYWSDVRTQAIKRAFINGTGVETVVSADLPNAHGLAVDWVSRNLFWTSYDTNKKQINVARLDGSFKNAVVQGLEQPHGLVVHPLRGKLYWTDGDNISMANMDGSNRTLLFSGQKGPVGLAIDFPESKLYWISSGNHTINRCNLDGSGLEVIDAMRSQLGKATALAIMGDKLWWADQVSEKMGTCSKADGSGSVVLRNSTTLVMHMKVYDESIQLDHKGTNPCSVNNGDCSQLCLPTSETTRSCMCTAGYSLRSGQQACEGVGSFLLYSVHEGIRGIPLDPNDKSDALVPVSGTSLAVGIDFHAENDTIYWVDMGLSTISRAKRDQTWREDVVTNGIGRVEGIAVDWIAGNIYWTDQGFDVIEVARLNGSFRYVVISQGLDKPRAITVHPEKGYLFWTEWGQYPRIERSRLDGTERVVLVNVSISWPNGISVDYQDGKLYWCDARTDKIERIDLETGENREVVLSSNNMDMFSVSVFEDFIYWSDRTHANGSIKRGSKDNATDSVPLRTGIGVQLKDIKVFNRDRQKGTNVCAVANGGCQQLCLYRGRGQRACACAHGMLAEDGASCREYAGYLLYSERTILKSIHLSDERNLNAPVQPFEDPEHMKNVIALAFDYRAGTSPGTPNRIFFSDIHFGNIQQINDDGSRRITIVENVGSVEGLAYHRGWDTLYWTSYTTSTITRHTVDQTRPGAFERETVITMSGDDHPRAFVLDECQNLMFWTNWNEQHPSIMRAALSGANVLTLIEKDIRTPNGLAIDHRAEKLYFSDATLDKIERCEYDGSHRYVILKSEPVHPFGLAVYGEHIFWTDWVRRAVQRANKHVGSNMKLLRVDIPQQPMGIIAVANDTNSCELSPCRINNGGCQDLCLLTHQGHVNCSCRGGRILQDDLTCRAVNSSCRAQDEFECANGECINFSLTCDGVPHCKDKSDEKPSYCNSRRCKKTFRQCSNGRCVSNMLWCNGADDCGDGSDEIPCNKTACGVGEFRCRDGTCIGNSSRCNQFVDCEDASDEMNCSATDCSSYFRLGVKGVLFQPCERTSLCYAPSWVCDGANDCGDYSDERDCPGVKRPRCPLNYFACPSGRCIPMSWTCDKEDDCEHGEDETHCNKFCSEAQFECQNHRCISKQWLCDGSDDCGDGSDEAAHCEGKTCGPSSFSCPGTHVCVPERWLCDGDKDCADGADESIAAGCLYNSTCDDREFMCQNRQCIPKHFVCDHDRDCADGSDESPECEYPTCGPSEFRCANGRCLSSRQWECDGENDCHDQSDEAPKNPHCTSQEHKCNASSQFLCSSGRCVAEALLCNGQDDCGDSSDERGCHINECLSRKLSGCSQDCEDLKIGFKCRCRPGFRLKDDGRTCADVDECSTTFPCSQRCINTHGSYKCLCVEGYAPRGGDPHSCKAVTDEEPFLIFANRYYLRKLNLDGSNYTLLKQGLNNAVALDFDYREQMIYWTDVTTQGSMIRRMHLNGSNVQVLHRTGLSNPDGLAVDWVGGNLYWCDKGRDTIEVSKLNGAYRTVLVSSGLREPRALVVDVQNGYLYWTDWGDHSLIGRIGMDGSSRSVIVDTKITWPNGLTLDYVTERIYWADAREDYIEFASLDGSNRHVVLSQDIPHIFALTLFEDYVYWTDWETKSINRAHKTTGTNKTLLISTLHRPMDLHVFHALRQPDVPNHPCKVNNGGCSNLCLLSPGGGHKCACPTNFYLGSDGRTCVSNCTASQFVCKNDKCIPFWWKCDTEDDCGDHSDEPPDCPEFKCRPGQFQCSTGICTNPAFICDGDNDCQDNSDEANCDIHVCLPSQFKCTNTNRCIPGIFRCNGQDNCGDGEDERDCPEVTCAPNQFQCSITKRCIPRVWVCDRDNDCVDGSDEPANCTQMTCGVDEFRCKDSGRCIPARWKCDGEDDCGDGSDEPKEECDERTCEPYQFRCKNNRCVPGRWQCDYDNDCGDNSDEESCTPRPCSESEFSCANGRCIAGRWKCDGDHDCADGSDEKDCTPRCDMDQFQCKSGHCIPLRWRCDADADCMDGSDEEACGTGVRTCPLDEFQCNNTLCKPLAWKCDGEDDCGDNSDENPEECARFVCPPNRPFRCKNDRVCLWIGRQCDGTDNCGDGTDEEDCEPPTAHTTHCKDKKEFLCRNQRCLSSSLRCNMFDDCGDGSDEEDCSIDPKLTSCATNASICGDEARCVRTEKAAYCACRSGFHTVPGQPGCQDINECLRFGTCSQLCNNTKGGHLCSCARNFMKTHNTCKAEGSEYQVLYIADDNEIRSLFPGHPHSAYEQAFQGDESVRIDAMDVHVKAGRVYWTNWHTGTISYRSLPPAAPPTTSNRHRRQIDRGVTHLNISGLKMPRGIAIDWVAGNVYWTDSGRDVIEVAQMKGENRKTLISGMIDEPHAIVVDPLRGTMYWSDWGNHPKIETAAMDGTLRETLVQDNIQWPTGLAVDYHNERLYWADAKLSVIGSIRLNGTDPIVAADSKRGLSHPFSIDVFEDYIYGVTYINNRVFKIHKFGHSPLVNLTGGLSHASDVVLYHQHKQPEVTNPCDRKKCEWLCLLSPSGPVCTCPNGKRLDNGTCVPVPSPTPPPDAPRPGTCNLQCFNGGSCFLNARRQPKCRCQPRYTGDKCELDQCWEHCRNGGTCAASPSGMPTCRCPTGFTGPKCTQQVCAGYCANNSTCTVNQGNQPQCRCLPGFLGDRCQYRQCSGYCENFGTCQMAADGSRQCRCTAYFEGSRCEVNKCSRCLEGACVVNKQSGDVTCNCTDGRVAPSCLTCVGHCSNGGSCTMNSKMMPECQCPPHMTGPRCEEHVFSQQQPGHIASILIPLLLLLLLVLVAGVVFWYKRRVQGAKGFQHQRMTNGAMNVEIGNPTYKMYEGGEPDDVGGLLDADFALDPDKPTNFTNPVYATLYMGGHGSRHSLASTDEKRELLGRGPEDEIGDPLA

In test [1], “non-enzymatically active tPA (NE-tPA/S478A-tPA) (from UniProt P00750 36-562)” yielded a Simulated outflow facility of HTM cells in ACOS, PA+NE-tPA (no inhibitor) (µl/min/mmHg/mm^2) of 0.55; a Simulated outflow facility of HTM cells in ACOS, PA+NE-tPA+MK-801+RAP (both inhibitors) (µl/min/mmHg/mm^2) of 0.33; a Simulated outflow facility of HTM cells in ACOS, PA+NE-tPA+RAP (inhibitor of LRP1) (µl/min/mmHg/mm^2) of 0.27. In test [2], this substance registered a Simulated outflow facility of HTM cells in ACOS, PA+NE-tPA (no inhibitor) (µl/min/mmHg/mm^2) of 0.55; a Simulated outflow facility of HTM cells in ACOS, PA+NE-tPA+MK-801 (inhibitor of NMDA receptor) (µl/min/mmHg/mm^2) of 0.29; a Simulated outflow facility of HTM cells in ACOS, PA+NE-tPA+MK-801+RAP (both inhibitors) (µl/min/mmHg/mm^2) of 0.33.
